The source of these data is patent US7923230.

One assay addresses Amyloid beta (1-40). Nature of the assay: SPR (BIAcore); SLF-CR pre-incubated with FKBP passed over immobilized Aβ(1-40); SLF-CR alone gave ~140 RUs; ternary FKBP/drug/Aβ complex. For orientation: SPR reads the build-up and loss of mass on a sensor chip optically.
A further assay concerns the target Amyloid beta (1-42). Nature of the assay: cell-based or functional assay.

Sequence of Amyloid beta (1-42) (peptide, as listed by the source): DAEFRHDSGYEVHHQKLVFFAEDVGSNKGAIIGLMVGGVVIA
Sequence of Amyloid beta (1-40) (peptide, as listed by the source): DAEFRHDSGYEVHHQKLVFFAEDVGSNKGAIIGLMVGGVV

Take “FKBP12 pre-incubated with the bifunctional compound SLF-CR (SLF-Congo red) (from UniProt P62942 2-108) (enzyme)”: the SPR response with Amyloid beta (1-40) stood at 230 RU. In turn, “FKBP12 with the bifunctional compound SLF-Benz-CR (from UniProt P62942 2-108) (enzyme)” had an IC50 in thioflavin T aggregation assay (drug concentration, FKBP 1 uM) in the assay with Amyloid beta (1-42) of 50 nM.
